Experimental data reported in a protein production outcome set (Wang et al. 2014).

Experiment: label from the status in PepcDB records

Row | Sequence | protein production
1 | MKVSILIITYNHSHFIAQAIESVLMQKVKFEYEIVIGEDSSTDNTRQILLDYQKQYSDKIRLLLPEKNLGMHRNFVNTLQACRGEYIAILEGDDYWIADDKLQKQVEFLDENPDFTICFHNVMVFHEDNQYQPYIFLHNQPTVSYIEDLLIRNFISTPSVMYRNGLVESIPTWFYEQGMGDWIFHILNAQYGKIGYIDEVMSAYRIHVQGVWSSKSRDWQLKETIRMLDTIKSNVNVRYAEIIDRAVQFYSEQLLYLVPESQEVTPVLNTSLPNYLQIKDINFIAFPDWNQPEELLYQSLYYAIKLFLTHPENNKIALFIDTTDISEEDADIYISSTLMNLMLEEELEESHKINVFLIGELDQIQWQTLLSFLKARIVLPSENLDAILASGTAIIPCLTVEQLIEFDLTFIESAKPYKLNIGCGNVRFHGWINIDIEQNYKTVDLVCDARQKLPFNDNSCDLIYNEHFLEHLTLEEGLFFLKECHRILKPEGILRIAMPSLEYVVQKYMSDDWRNQEWLNYPEYQFIKTRAEMLNIAMRWWGHQWLYDTEELHRRLTESGYINVQNFAWGKSNTPDLRNRETRVDSILICESQALK | failed
2 | MKVTDVRLRKIQTDGRMKALVSITLDEAFVIHDLRVIEGNSGLFVAMPSKRTPDGEFRDIAHPINSDMRQEIQDAVMKVYDETDEVVPDKNATSEDSEEA | not failed
3 | MKVYLHFSPQFFANTYLIGNEITKEAVIIDPAKITEKMIHQIEKNEFNLKAVLLTHDLEHPYETGLNTILKIYSPKVYAGSCFSENVTINTLRGDGCIDVAGYSVRYFAIPAHSSYSYMFQIENMVFTGTSLSAGMIGQTSNMYAERTLRNILKTKLMCFEDNLIIMPFYGPPTSIGVERKYNASFFQDLEHHHHHH | failed
4 | MKVYVVVPTYNESDNIVALMEKILAQRDNIHVLVVDDNSPDGTGEIAARMSSDNPRIHVLRRSGKMGLGSAYCDGFRVALRDGADFIIEMDADFSHDPATIPALLAATDKYDVVVGSRYLNGVSVVNWPIRRLMLSYFASVYTRFVTGLALRDCTSGFKCFRRRVIESVDLDTIRSDGYSFQIEMNYRCVERGFRVGEIPIIFIDRHAGSSKMSKKIVREAVLMVWKLKLGSLVKKLTRRGDRHAALEHHHHHH | not failed
5 | MKWILAVGLLSCSVAMAQQQSDILSVSASANAENAALAFDRNVKTMWTIPSQALKAEQWLMFTIQQPGDVCELDLQMQGINKNELKEVLDIFVTYDPMNLGTPVNYRIEGSDKQMKVKFTPKYGAHVKLNFKSGKLDKPFSLKEISVLVAEKVLTDSQGKVTDRRYMDASLPVEERVESLLAVMTPEDKMELIREGWGIPGIPHLYVPPITKVEAVHGFSYGSGATIFPQALAMGATWNRKLTEEVAMVIGDETVAANTKQAWSPVLDVAQDARWGRCEETFGEDPVLVSQIGGAWIKGYQSRGLFTTPKHFGGHGAPLGGRDSHDIGLSEREMREIHLVPFRHAIRNYDCQSLMMAYSDYMGVPVAKSKELLQQILRQEWGFNGFIVSDCGAIGNLTARKHYTAKDKIEAANQALAAGIATNCGDTYNNKEVIQAAKDGRINMEDLDNVCRTMLGTMFRNELFEKNPCKPLDWKKIYPGWNSDSHKEMARQAARESIVMLENKDNLLPLSKTLRTIAVLGPGADDLQPGDYTPKLLPGQLKSVLTGIKGAVGKQTKVLYEQGCDFTNPDETNIPKAVKAASQSDVVIMVLGDCSTSEATNDVRKTCGENNDWATLILPGKQQELLEAVCATGKPVILILQAGRPYDILKASEMCKAILVNWLPGQEGGPAMADVLFGDYNPAGRLPMTFPRHVGQLPLYYNFKTSGRRYEYVDMEYYPLYRFGFGLSYTSFEYSNLKIQEKANGNVEVQATVKNVGSRAGDEVAQLYVTDMYASVKTRVMELKDFARIHLQPGESKTVSFEMTPYDISLLNDRMDRVVEKGEFKIMVGGMSPDYVAKNEIKHSVGYSDNKKGVTGMLNYTHEFGANFDLAVSKVEENLVKNQKTVWVSVKNTGTLMDIGKVEMFVDGKKVGDAVHYELGAGEEKLIPFKLAKENKQPVAFTTKYKMVSM | failed
6 | MKWLKHFQSLHTKLVIVYVLLIIIGMQIIGLYFTNSLEKELTQTFKNNISQYAKQIEINIEKVYDEDNAINAQKEVQNLLNEYANRQEIEEIRFIDKDQIIMATSKQSTRSLINQKANDNSIQKALSLGEINSHTVLKDYGNGKQRVWVYNLPVKTSNDGTIGDVYIEADINDVYNQLSNINQIFIVGTGISLLITVILGFFIARTITKPITDMRNQTVEMSKGNYTQRVKIYGNDEIGELALAFNNLSKRVQEAQANTESEKRRLDSVITHMSDGIIATDRRGRVRIVNDMALTMMGTMKEDIIGDHMLKVLKLEEDFSLDEIQENNDSFLLDINENEGIIARVNFSTIVQETGFVTGYIAVLHDVTEQQQVERERREFVANVSHELRTPLTSMNSYIEALESGAWKDGELAPQFLSVTREETERMIRLVNDLLQLSKMDNESEQITKEIVDFNMFINKIINRHEMSAKDTTFVREVPTETIFTEIDPDKMTQVFDNVITNAMKYSRGDKRVEFHVKQNALYNRMTIRVKDNGIGIPINKVDKIFDRFYRVDKARTRKMGGTGLGLAISKEIVEAHNGRIWANSVEGQGTSIFITLPCEVLEDGDWDAE | failed
7 | MKWPWWPVCVPLSKRLTLPLPSTANPVVQPSRLALACANRLFEAADNRERFLQALMTPPAYPATVLWCGEPAAALPFAALPPLPWQPPWVSRFVAGSPTGQHPLHAAGAYYCLDSSSVFAAVPLLTLPQEPSLVIDVCAAPGGKSLFAWRSLHPRYLICNETIGKRVGKLIGNLKRCRVHPVGVTSWDSEVLAAEFQGTADVVIVDAPCSGQSLLAKGQKAEGCFHPLTIRHNQRRQKRILAAATTLVRPGGWLLYSTCTFSQDENEDVAAWLMAKFPHLLPQPVPALAAYQSHLAAFPCYRLWPHQGEGAGAFTILWQHQGLEHHHHHH | not failed
8 | MKWTTANTKHVNYTAKHELYVGTHTGSFKHLVPASEKTPYGQSNLSDLCALDKDSRVTSLAFGNDDQTEILLGRAKDAVEIHSFTEKGHSRNTVSFNAAPIVGLARYNDKLIAGIGNGEIQSLELEANDESEPVVIATGDQMDHLRQCAQVKSIVATGGKERQNNLKVYDLNADGKQIFTSKNLPNDYLQLEVPVWDSDIGFVDGPSVLATCSRTGYVRIYDTRKQRRPVACFASEEHGMSFTTLVAKGNFIYTGTTMGALKAFDTRRMKTHVHTYKGFTGGISDLHLDATGRFLSSASLDRYVRIHDSETTVLLYQCYVKSKATKILIRPFENEARVTEEPEEVADLQMDRNVSENKSVNATSVDNEYEDMFDQMPTVGDSDNESEEEMSNIKLSKADLKRRSSEKSLKNKKKKVVIS | failed
9 | MKYTYKQIWLINFPVMMSILMEQLINITDAVFLGHVGEIELGASALAGIYYLAIYMLGFGFSIGLQVMIARRNGEQHYKETGRTFFQGLYFLMVMAIMLCLLIHLVSPFILQQLITSDEIYQAVIRYLNWRSFGLLFSFPFLAFRAFLVGVTNTKLLSGAALTAVCINIPFNYLLIFKLDMGISGAAMASSIAEFGAFLILLLYMCKTVDKKKYGLSAVYDGRLLMKLLQLSVWSMLHAFISVAPWFLFFVAIEHLGKTELAISNITRSVSTLFFVIVNSFASTTGSLVSNLIGGGQGKELFPVCRKVLRLGYVVGLPLILTALWGNQWIIGFYTNNDYLVKLAFWPFIVMLLNYVFALPGYVYINAVTGTGKTRLAFVFQLVTILIYLIYLYLLSECFHASLTVYMTAEYLFVILLGIQSILYLKRKSKQNMYFCTFND | failed
10 | MLAGGAARRLGGADKPGLRVGGRPLLDRVLAACAGARRTVVVADPRPTARPVTWAREDPPGGGPLAALAAGLRHTTAEYVLVASADLPFLAGPTVGRLLSALAAGDADGVLLTDADGRDQPLVAAYRAPALRRELAALARNRAGRGERADGAQLTGLPLRRLTGALRLTRVPDAVAAFDCDTWDDLATARARIREHGHVLDEWISAAKDELGIDLDVDTGILLDLARDAAHGVARPAAPLTTFLVGYAAGRAGGGPEAVAETARKAAALAQRWAEEAADTGSAPARGKPDVAPDATPDTRPDA | failed
11 | MLAGGKMGDMKITRHIHACVEISQGNDRIIIDPGTFGAPDLCGATILVTHNHADHVDPELLKPGMTIYAPRSVAHSIPVECHIVEHGRNFTVGSLSVEVLGSEHAMLTHSMPIAENVGYLINGRVLHPGDTFQPIKDVELALVPVNGPWVKMLDVEGYLKKFPPKRFIGIHDGIVNDRGLAINKKFLTHLGETYGSEYSPLEEGESLEILEHHHHHH | failed
12 | MLAGGSLPSLAPDLVRDLIATAADISLLVSQEGVVREVMANPHHPSFGQLSEWEGRPLEEVLTAESVAKFRLRSEGLEPGRGSVAVELNHIDPRSFEFPIRYILHRLPADRSILMLGRDLRPIAEVQQQLVAAQLAMERDYETQREMETRYRVVLDVSRDPMVLVSMSTGRIVDLNSAAGLLLGGVRQDLLGAAIAQEFEGRRRGEFMETMTNLAATESAAPVEVLARRSQKRLLVVPRVFRAAGERLLLCQIDPADATQPVGDELSENLARLYHEGVDGIVFSDADGTIRGANEAFLNMTDSSSLAAIRGRSIADFLARGSVDLRVLIDSVRRTGQLRLYATRLTTDFAGQIAAEISATWLDDRERPLLVLVVRDTSRADTMRRPVPATGVIDEPARNVMELVGNSTLKDIVAETTDVVEKMCIETALELTRNNRVAAAEMLSLSRQSLYVKLRKFGLLNKDE | failed
13 | MLALVKRNCLLYFRNRSGVVFSLLGALISFILYLVFLKDNIESSWSQIDNTNQLLDTWLIGGTLAITGITTTLSNLSQWTKDKESHVRQDLLITDLGYWPLSLSYIISAALVGFIMQAIMLTIMGTYFYFTDKVTLSWTVLLQLIFIMILNTLISTIINALIVNRIQSVDNLGKLATIFGAASGFLVGTYVPIGALPDTAQTIMKLTPGAYIASLFRQTLMSDTLKDNFSQANAREHFEKMMGIRLNWQNLLTNTDTYYIVIGILVAGVLIFCLQNALRKYQALI | failed
14 | MLAQKNTNKKPFGNTLTNILCKDKKKKNLDPQISSLVSLVDNMDITQEKKDKIKNLSLKYINSRDVKEKNESINELQKYSNNEECKEQMDSYLMHLRMQNDIKCLKRKNLWNNIGINSITLSLIIIMIMIACMFAIYSTAQYIYVPASFLLIFIIYIVARYFPDMKIGFKKLKTKLNTFFQNKKQITK | failed
15 | MLARAALILLFFGLLGDSGAGQGRDGNALFDRGRYVAAAETYRAGLDALDDTTGSVYTGLQNNLGLALHRQERLGAARAALRKARRAATTEAERVRVLFNAATVAAEMNDRTKALDRYRTVLLLDPTHEAARFNYEYLKRQAGGGAGSDPPTLEPSPFAQKLKERADALVARTQYTTAAALLRDGMQKDSTVRAYRDFVTRIEEIAQIARSDP | failed
16 | MLARVLILLMFSLCAWPARAHALTIYTEEWPPITFQRNGIADGMAVEVVREIQGRIHDNSPIEVVPWARGYKDLLTTPGVMLFTVGRSEAREKQMTLLGPIAVSQTVLLARKGEAAKLLALGAGIYQRPVGAYRGSIFADAASAAGFVEVDLAPTPQLTAQKMLMGRYDMWVEGGFVVASVLKDIHQPANAVEVVRVLESLELYLAFSRGTSAEEVKRWQDGFAAIKKDGTFKRIYNKWLPRDAPPMEMKLLGVPPGTAR | failed
17 | MLDATTRSGGTATATPRATATDLTVATAAAAAGVTAPGAAVAVPTGFTARCTRVLLSPWSRLSLLVALLAAAASSVLLFEPQKLLAHGWPPQLGGAAAAVVFAVAYGLCTVAFVPRPLLNLAAGALFGSQWGTGTALAGTVLGAGVAFGLGRMLGQDALRPLLRGRWLKAVDGQLSRHAFRSMMAARLFPGVPFWAANYCAAVSRMRWVPFLVATALGSIPNTAAYAVAGARASRPTSPAFLIAMGFIAVPALVGAVVAWRKRHHLRGN | failed
